Values of other authors, collected in publication PMC3321547 (Biochemistry, 2009).

Test system: DKH960
Conditions: folded DKH960, ref [6]

B1: DKH960: folded kinesin heavy chain construct (protein, UniProt P17210 1-960, looked up, fragment)
chain: MSAEREIPAEDSIKVVCRFRPLNDSEEKAGSKFVVKFPNNVEENCISIAGKVYLFDKVFKPNASQEKVYNEAAKSIVTDVLAGYNGTIFAYGQTSSGKTHTMEGVIGDSVKQGIIPRIVNDIFNHIYAMEVNLEFHIKVSYYEIYMDKIRDLLDVSKVNLSVHEDKNRVPYVKGATERFVSSPEDVFEVIEEGKSNRHIAVTNMNEHSSRSHSVFLINVKQENLENQKKLSGKLYLVDLAGSEKVSKTGAEGTVLDEAKNINKSLSALGNVISALADGNKTHIPYRDSKLTRILQESLGGNARTTIVICCSPASFNESETKSTLDFGRRAKTVKNVVCVNEELTAEEWKRRYEKEKEKNARLKGKVEKLEIELARWRAGETVKAEEQINMEDLMEASTPNLEVEAAQTAAAEAALAAQRTALANMSASVAVNEQARLATECERLYQQLDDKDEEINQQSQYAEQLKEQVMEQEELIANARREYETLQSEMARIQQENESAKEEVKEVLQALEELAVNYDQKSQEIDNKNKDIDALNEELQQKQSVFNAASTELQQLKDMSSHQKKRITEMLTNLLRDLGEVGQAIAPGESSIDLKMSALAGTDASKVEEDFTMARLFISKMKTEAKNIAQRCSNMETQQADSNKKISEYEKDLGEYRLLISQHEARMKSLQESMREAENKKRTLEEQIDSLREECAKLKAAEHVSAVNAEEKQRAEELRSMFDSQMDELREAHTRQVSELRDEIAAKQHEMDEMKDVHQKLLLAHQQMTADYEKVRQEDAEKSSELQNIILTNERREQARKDLKGLEDTVAKELQTLHNLRKLFVQDLQQRIRKNVVNEESEEDGGSLAQKQKISFLENNLDQLTKVHKQLVRDNADLRCELPKLEKRLRCTMERVKALETALKEAKEGAMRDRKRYQYEVDRIKEAVRQKHLGRRGPQAQIAKPIRSGQGAIAIRGGGA
maximum extent of inhibition of ADP release: over 50%
